Laboratory results reported in patent US20120100140A1.
pIC50: −log10 of the molar value.

Experiments:
CD16 (FcγRIIIa V158) [1] = biological target: CD16 (FcγRIIIa V158) (UniProt P08637); assay: solution affinity SPR: inhibition of CD16 binding to immobilized IgG1 MAb
CD64 (FcγRI) [2] = biological target: CD64 (FcγRI) (UniProt P12314); assay: solution affinity SPR: antibody titrated into CD64, inhibition of CD64 binding to immobilized IgG1 MAb; average of two titrations
CD64 (FcγRI) [3] = biological target: CD64 (FcγRI) (UniProt P12314); assay: solution affinity SPR: inhibition of CD64 binding to immobilized IgG1 MAb
CD32a = CD32a (UniProt P12318); assay: solution affinity SPR: inhibition of CD32a binding to immobilized IgG1 MAb
CD16 (FcγRIIIa V158) [4] = biological target: CD16 (FcγRIIIa V158) (UniProt P08637); assay: solution affinity SPR: antibody titrated into CD16, inhibition of CD16 binding to immobilized IgG1 MAb; average of two titrations

Sequence of CD16 (FcγRIIIa V158) (P08637 17-208 F176V limits assumed): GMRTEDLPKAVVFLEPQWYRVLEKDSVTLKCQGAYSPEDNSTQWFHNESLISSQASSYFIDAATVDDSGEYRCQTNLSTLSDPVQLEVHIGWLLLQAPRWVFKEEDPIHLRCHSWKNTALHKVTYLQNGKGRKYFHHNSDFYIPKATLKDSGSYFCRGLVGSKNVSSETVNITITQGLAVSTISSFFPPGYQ
Sequence of CD64 (FcγRI) (P12314 16-288 limits assumed): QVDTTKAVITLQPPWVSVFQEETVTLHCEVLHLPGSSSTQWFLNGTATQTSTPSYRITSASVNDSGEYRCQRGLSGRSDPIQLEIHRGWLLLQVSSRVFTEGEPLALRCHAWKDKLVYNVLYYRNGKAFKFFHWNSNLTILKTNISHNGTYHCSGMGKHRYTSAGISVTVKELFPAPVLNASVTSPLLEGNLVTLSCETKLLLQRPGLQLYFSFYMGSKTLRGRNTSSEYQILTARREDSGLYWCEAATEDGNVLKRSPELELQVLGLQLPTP
Sequence of CD32a (P12318 34-217 limits assumed): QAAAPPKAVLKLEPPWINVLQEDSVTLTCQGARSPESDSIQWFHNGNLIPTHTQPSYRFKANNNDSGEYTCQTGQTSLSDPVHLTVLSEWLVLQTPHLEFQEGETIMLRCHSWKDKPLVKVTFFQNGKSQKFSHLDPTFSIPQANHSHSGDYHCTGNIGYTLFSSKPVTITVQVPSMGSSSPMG

Row | Substance | pIC50 (CD16 (FcγRIIIa V158) [1]) | pIC50 (CD64 (FcγRI) [3]) | also measured
1 | EAG2377 (hu5c8 aglycosylated IgG1 T299N) (antibody) |  | 3.23 | 
2 | EAG2379 (hu5c8 aglycosylated IgG1 T299E) (antibody) |  | 3.71 | pIC50 (CD32a): 2.89
3 | EAG2390 (hu5c8 aglycosylated IgG1 T299P) (antibody) |  | 3.41 | 
4 | EAG2476 (YC406-Fc; agly IgG4-Fc T299K, T307P, L309K, D399S, no Fab) (from UniProt P01861 99-325) | 2.88 |  | 
5 | IgG1 T299A (hu5c8 aglycosylated IgG1) (antibody) |  |  | pIC50 (CD64 (FcγRI) [2]): 3.69
6 | IgG1 control antibody (hu5c8 wild-type glycosylated IgG1) | 3.98 |  | pIC50 (CD16 (FcγRIIIa V158) [4]): 4.00; pIC50 (CD64 (FcγRI) [2]): 5.02

Further lines, with some results ahead:

Row | pIC50 (CD16 (FcγRIIIa V158) [1]) | pIC50 (CD64 (FcγRI) [3]) | Substance | also measured
7 | 2.88 |  | CN578 (hu5c8 aglycosylated IgG1 T299K) (antibody) | pIC50 (CD64 (FcγRI) [2]): 2.85
8 |  | 2.22 | EAG2378 (hu5c8 aglycosylated IgG1 T299R) (antibody) | 
9 |  | 3.46 | EAG2380 (hu5c8 aglycosylated IgG1 T299F) (antibody) | 
10 |  | 3.34 | EAG2389 (hu5c8 aglycosylated IgG1 T299Q) (antibody) | 
11 | 2.22 |  | EAG2478 (CN578-Fc; agly IgG1 Fc T299K, no Fab) (from UniProt P0DOX5 218-448) | 
